Test results published in the supplement of paper PMC12764529.
± gives the half width of the 95% confidence interval.

Assays:
[1] = folding stability dG unfold from trypsin proteolysis; higher = more stable
How it was run: (§1)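 Unfolding free energy was derived, per protease or combined, against a sequence-predicted unfolded-state K50 and a shared folded-state K50, starting from K50 inferred by Bayesian fitting of sequencing counts. Digestion with trypsin and chymotrypsin was carried out on designed mini-proteins under 80 residues without cysteine in a PA-tagged cDNA display construct. Only designs with AlphaFold2 dimer inter-PAE above 15 were kept.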

[2] = folding stability dG unfold from chymotrypsin proteolysis; higher = more stable
How it was run: as §1

[3] = folding stability dG unfold (combined trypsin and chymotrypsin); higher = more stable
How it was run: as §1

Sequence	folding stability dG unfold [1]	folding stability dG unfold [2]	folding stability dG unfold [3]
SAGGSAGGSAMSEEEKKKKKPKLEIKVKVEFTVDENGTVRAKVTFEDGTTLEVEIKLPPELLSAGGSAGGSA [r18_192_TrROS_Hall]	1.92 ± 0.094 kcal/mol	1.49 ± 0.059 kcal/mol	1.7 ± 0.11 kcal/mol
SKVKVEVVEVKYNKETKKFTVKLKVYNEDGELIEEIELEFPESEEEVLKKAEELAKELAEKYGLKIEIKPSA [r9_31_TrROS_Hall]	2.41 ± 0.12 kcal/mol	3.89 ± 0.085 kcal/mol	3.56 ± 0.12 kcal/mol
SAGGSAMIEIKVEVNGKTYRITIEKNEDGTLTLTVYDEKTGKKTEIEIPLENLEELKKLNVKRIEISAGGSA [r15_629_TrROS_Hall]	1.78 ± 0.077 kcal/mol	3.54 ± 0.036 kcal/mol	3.09 ± 0.12 kcal/mol
SAGGSAGGSAGMEPPEIKVEVSSDPTPSGMKVETIKDLGKGKTIIVLKPEDGSVSTSTLESAGGSAGGSAGG [r11_55_JUSTAS]	-0.0544 ± 0.19 kcal/mol	0.286 ± 0.13 kcal/mol	0.0414 ± 0.44 kcal/mol
SAGGSIPPGARVETLEVVTSSSSDGTVTTTTLTRVTSPEDSVSERTRTTTDPVVPPPATPTNPVSLASAGGS [r8_90_JUSTAS]	-0.0164 ± 0.079 kcal/mol	0.804 ± 0.06 kcal/mol	0.507 ± 0.053 kcal/mol
SAGKKKKVVITIKVEKSEEEVKELVKKLAEEAKKKGKEVVIKIEVDGKTYEFTLEDIKKLPPNAKVTLLSAG [r5_626_TrROS_Hall]	1.56 ± 0.11 kcal/mol	1.67 ± 0.096 kcal/mol	1.58 ± 0.44 kcal/mol
SAGGSAGGMTPEEERRKKESPVPPVNKVTVKIPVPSSVSEEVAKEIAEKLEKESGAKKVEVILPSAGGSAGG [r6_517_JUSTAS]	0.257 ± 0.042 kcal/mol	1.34 ± 0.098 kcal/mol	1 ± 0.091 kcal/mol
SAGGSAGGSGSMLPITTVTPTPDGVWKITYELPDGSTRTITVPPDDLSLSGPPSSSGSSAALASAGGSAGGS [r20_194_JUSTAS]	1.28 ± 0.091 kcal/mol	0.041 ± 0.31 kcal/mol	0.764 ± 0.15 kcal/mol
SAGMVIPILLKPEPERPEEVEKKAIEFANKLKPLNLPNVKIKVYRAPYVDPETGKTTVLYLVLIEVEPPSAG [r5_49_TrMRF]	1.83 ± 0.1 kcal/mol	2.79 ± 0.13 kcal/mol	2.4 ± 0.19 kcal/mol
SALDVPPDARVYVFRLRYPVPPGVSAADVAARVRAELSERFGPDVEIVVTVTPDPETGEVLVEAVVVEPVSA [r9_657_TrMRF]	3.57 ± 0.12 kcal/mol	4.05 ± 0.058 kcal/mol	3.82 ± 0.16 kcal/mol
SAGGSAGGSETRVLVRPLDGAIVIEAYRRLPDGSWVLAERIVIPTKGDDPESIARAQEVIDKLSAGGSAGGS [r12_169_TrMRF]	3.76 ± 0.059 kcal/mol	4.67 ± 0.087 kcal/mol	4.38 ± 0.078 kcal/mol
SAGGSAGGSAKPKVKIEVEERRVLTLDPETGELKEERVLVVRIEVEPGMSEEEAKKLLEELASAGGSAGGSA [r18_438_TrROS_Hall]	1.7 ± 0.079 kcal/mol	2.66 ± 0.12 kcal/mol	2.27 ± 0.16 kcal/mol
SAGGMKIVSIEYDKENKKITIKVEAPPGVSAEELAKKIKELAKELFGKEIEIEVKVEKVEFFEPEEESAGGS [r8_314_TrROS_Hall]	3.61 ± 0.16 kcal/mol	3.12 ± 0.13 kcal/mol	3.33 ± 0.12 kcal/mol
SAGGKIEVEPEVELYRTPDGRLVARPKPVKVKITLKLTITNENGEKKTIEVEADTPEEALAALKALSSAGGS [r8_440_TrROS_Hall]	1.03 ± 0.053 kcal/mol	0.726 ± 0.2 kcal/mol	0.965 ± 0.14 kcal/mol
SAGGNRIMFIVNSPEEAERFANFIRKHLPPGMNLEIEIEPFPLKDNVPPDDPDYKNQPVYMVHITIPSAGGS [r16_795_TrROS]	3 ± 0.096 kcal/mol	4.13 ± 0.12 kcal/mol	3.73 ± 0.2 kcal/mol
SGMTIKILEVDFNPLGEEDEKATITLKAEIGGEEVELKIEVYRRPDGSAIAKITLILPGSGEPFEITADISA [r9_241_TrMRF]	2.61 ± 0.11 kcal/mol	4.16 ± 0.13 kcal/mol	3.91 ± 0.17 kcal/mol
SPKELEFKHPDNGMEVKIRLDPNQGRIEIEVRPPNGPPVKMDMEVTDDRIKIDIYYPGGRPMMQLEFPLPSA [r9_665_TrROS]	2.92 ± 0.15 kcal/mol	2.79 ± 0.074 kcal/mol	2.88 ± 0.085 kcal/mol
SAGGSAGGSMIEVVKFPNGITLEYFPETNTYRAFNPSTNTTTTFPPGVSFEEAVEAVKKGNLVSAGGSAGGS [r12_832_JUSTAS]	4.1 ± 0.091 kcal/mol	3.82 ± 0.017 kcal/mol	3.88 ± 0.041 kcal/mol
SAGEEKEAKALAEQYAAEFAPKLGMKYEVPEVKVEKDEKTGKITVTVTVKFTFPEPRTVTKKFTIVVPKSAG [r5_381_JUSTAS]	2.4 ± 0.14 kcal/mol	1.61 ± 0.11 kcal/mol	2.14 ± 0.27 kcal/mol
SAEVELKPDEELEFEFPDSQVKISYVPGTGVITTTTTFTTPDGTVVYKTTTIKKEGKEVTSTTVSLAEASSA [r9_881_JUSTAS]	0.389 ± 0.054 kcal/mol	1.52 ± 0.067 kcal/mol	1.17 ± 0.12 kcal/mol
SAGGMKIEIVEIEREGNTITIKAKITLPDGTVIEITAKAEFVDGELKLEIKVEVRKLPPPPPPPPEESAGGS [r8_458_TrROS_Hall]	2.87 ± 0.27 kcal/mol	2.73 ± 0.39 kcal/mol	2.55 ± 0.53 kcal/mol

Sequence	folding stability dG unfold [1]	folding stability dG unfold [2]	folding stability dG unfold [3]
SAGGSAGGSAGGTITLPGGAEVTEVERLPGGVLKITGVLTLPGGPVTVEVTLPVTPELLESAGGSAGGSAGG [r7_38_JUSTAS]	0.772 ± 0.034 kcal/mol	1.03 ± 0.049 kcal/mol	1.03 ± 0.099 kcal/mol
SAGGSAGGSAGGPEVERFRIPGDNVLVEVVRLEDERIARITFPDGSQLTVPLPPGWEAFSAGGSAGGSAGGS [r10_976_TrMRF]	0.853 ± 0.031 kcal/mol	0.851 ± 0.13 kcal/mol	0.948 ± 0.097 kcal/mol
SAGGAVEITDISSKTVTEPVTFENGTVVPQERTAGTVTTTENGTPVATVPFTSEEELEEAIARALAESAGGS [r8_21_JUSTAS]	-0.276 ± 0.22 kcal/mol	1.24 ± 0.034 kcal/mol	0.869 ± 0.1 kcal/mol
SAGGSAGGSANRKVIQFDSPEEILEAIDEAPEDDPVIIEWHDPDGGEPWWIKFDGDEIELIMSAGGSAGGSA [r18_407_TrROS]	-0.66 ± 0.23 kcal/mol	-0.277 ± 0.41 kcal/mol	-0.511 ± 0.45 kcal/mol
SAGGSSPWLERALEEARELMKNDPPGKEVEAKVKVPYPTPDGQQQPMKFRIRMTYKNNKIKEIEITSAGGSA [r2_173_TrROS]	0.91 ± 0.11 kcal/mol	0.518 ± 0.25 kcal/mol	0.823 ± 0.17 kcal/mol
SAGGSAGGMKEGETRTITFWANVKPGDLEKIANHMMKFGWPIKKVDIKRHPENGMVRVSITIRKSAGGSAGG [r6_514_TrROS]	2.21 ± 0.025 kcal/mol	2.56 ± 0.045 kcal/mol	2.43 ± 0.052 kcal/mol
SAGGSAGGSAEVFIVKFSDPAKLKAFMEKLGLSYEKGDNPKITNPEEFLKNLPLVKNVVVTKKSAGGSAGGS [r12_571_JUSTAS]	0.286 ± 0.12 kcal/mol	0.54 ± 0.14 kcal/mol	0.423 ± 0.057 kcal/mol
SAGGSAGGSAGGPPDLVKVRFIKVSVKLKEVKENPNGEKEMKLEMKIEEVEVTVRKDDLSAGGSAGGSAGGS [r10_524_TrROS_Hall]	2.61 ± 0.21 kcal/mol	2.71 ± 0.12 kcal/mol	2.71 ± 0.15 kcal/mol
SAGGSAGGMIREIEVKVSPEFPSVEEVVEELKAKGYEVKRIEEDPETDEVIVYVVKKVPEEEHHSAGGSAGG [r6_604_JUSTAS]	1.05 ± 0.068 kcal/mol	1.04 ± 0.17 kcal/mol	1.08 ± 0.12 kcal/mol
SAGGSAGGSMVITVDPSLSPEEAVERAKEEVKKEVPESEPVEVTVVIKDPETGKTTEIPVKLDSAGGSAGGS [r12_1051_JUSTAS]	0.739 ± 0.047 kcal/mol	-1.17 ± 0.23 kcal/mol	0.187 ± 0.26 kcal/mol
SAGGSAMEEEKPPKVKVRITVELEDGEKLEIEFETKEEAEEAAEALAKELEEKTGLKIKKIEVEEVSAGGSA [r15_140_TrROS_Hall]	2.77 ± 0.11 kcal/mol	2.96 ± 0.13 kcal/mol	2.81 ± 0.23 kcal/mol
SAGGSAGGSLRLRVTFTVTVTFLDGNRLRPAKVEITVEIELEPIPPELLRPRPLPGDKLEYDLSAGGSAGGS [r12_1031_TrMRF]	2.72 ± 0.17 kcal/mol	3.29 ± 0.045 kcal/mol	3.16 ± 0.25 kcal/mol
SAGGSAGGSAGGGKKVKVIIAADKPEEAEKAIEKLEKETDLPLEDVIVIPREEAEKLGLASAGGSAGGSAGG [r7_84_TrMRF]	-1.27 ± 0.82 kcal/mol	-0.574 ± 0.14 kcal/mol	-0.553 ± 0.47 kcal/mol
SAGGKPKEIKIKVEVEEKEVNGKKYLVVKIELEVDGKKIEIELVVEMSEEEKEKAKKLAEELLKKLKSAGGS [r8_480_TrROS_Hall]	2.6 ± 0.21 kcal/mol	2.77 ± 0.22 kcal/mol	2.82 ± 0.4 kcal/mol
SAGGSTLEEIKAAVIKAAEAGEKEAEIEAPLPDGGKLRILKGGVIEFIPEDGVPKRLKISVSEIKVSAGGSA [r2_97_TrMRF]	-1.2 ± 0.75 kcal/mol	0.451 ± 0.36 kcal/mol	0.0476 ± 0.26 kcal/mol
SAGGSAMPLLKPPKTIRLRILFKVPEPGKELDITEEAVRELFNPFGAKVRIYRDGDYVLIEVEFVVSAGGSA [r15_377_TrMRF]	4.03 ± 0.097 kcal/mol	3.37 ± 0.089 kcal/mol	3.85 ± 0.15 kcal/mol
SAGGSSIKVTITDKNGNEYEIEIPSSLSLEEAKEKVKEYLEKKGYKVESITVENLPPGEAEIKVLKSAGGSA [r2_148_JUSTAS]	0.0509 ± 0.059 kcal/mol	0.465 ± 0.21 kcal/mol	0.423 ± 0.29 kcal/mol
SAGGPKPGEKWIARTKEGLVPITLEGDKVTITDALTGKKTVIPIPGASLEEIKELLLSEPDYEVYPESAGGS [r16_583_JUSTAS]	-0.603 ± 0.37 kcal/mol	-0.737 ± 0.32 kcal/mol	-0.404 ± 0.19 kcal/mol
SAGGSAGGSKKPVLAKIAILNSGSPEVAEELAKRLAAELGLSPDEVKVELHVIPVTAPGELLFSAGGSAGGS [r12_1066_TrMRF]	0.465 ± 0.02 kcal/mol	0.328 ± 0.063 kcal/mol	0.416 ± 0.043 kcal/mol
SMVTVERPESTKTIDAPPSATVEFDPATGTLRVYSPDGTATTVPLSPTWSIQPSDNSVTVTAPPASPAAPSA [r9_653_JUSTAS]	0.056 ± 0.059 kcal/mol	0.669 ± 0.1 kcal/mol	0.421 ± 0.066 kcal/mol
SSKTVTVTTEEEEKEAREKIKELVKPGKSVDVEITMTGPDGTRTRRTYKITTNPDGTITIEETETPLPPPSA [r9_1023_JUSTAS]	1.5 ± 0.034 kcal/mol	2.43 ± 0.057 kcal/mol	2.17 ± 0.21 kcal/mol
